Results published in patent US20250163146A1, “SINGLE-DOMAIN ANTIBODIES (NANOBODIES) TARGETING THE NOTCH LIGAND DLL4 AND METHODS OF THEIR USE” (H. LEE MOFFITT CANCER CENTER AND RESEARCH INSTITUTE, INC., priority 2022, published 2025).

Tests used:
[1] = target: T1, mouse DLL4 (Mus musculus, UniProt Q9JI71); assay: Yeast-displayed nanobody clones stained with biotinylated mDLL4 and SA-647, flow cytometry; assay type: binding; conditions: yeast display, biotinylated mDLL4 (N-EGF3), SA-647, FIG. 1
T1 construct: The mDLL4 protein was a truncation that contained the C2, DSL, and EGF1-3 domains (DLL4 (N-EGF3)); biotin (protein is biotinylated)
Experimental: 162. To isolate binding molecules that interrupted the interaction of DLL4 and Notch1, we performed several rounds of selection using decreasing concentrations of biotinylated murine DLL4 protein. The mDLL4 protein was a truncation that contained the C2, DSL, and EGF1-3 domains (DLL4 (N-EGF3)). To perform a selection, the library was stained with biotinylated mDLL4, washed, incubated with streptavidin-647, washed, and then binders isolated selected using either (a) magnetic beads coated with an anti-647 antibody or (b) FACS. The mDLL4-binding yeast were then plated so that individual colonies could be picked and cultured to isolate individual clones. The clones were then each stained with mDLL4 and SA-647 and analyzed by flow cytometry to confirm that they bound to mDLL4. (FIG. 1).

[2] = test system: hNotch1; assay: Inhibition in plate-bound and co-culture formats with CHO-hNotch1 reporter cell line; assay type: cell-based, human; conditions: preliminary
Source text: (§1) 168. We the investigated the C4 nanobody following affinity maturation and found a second nanobody Nb.d4C4v2. To identify the similarity between the parent C4 and the variant C4v2 clone the sequences of each nanobody was compared (FIG. 7). We also investigated the affinity of the C4 nanobody. […] Moreover, inhibition in plate-bound and co-culture formats in the presence of CHO-hNotch1 reporter cell line and with or without cells expressing DLL4 indicate a low-nanomolar IC50 similar to DAPT, indicating affinity-matured Nb.d4C4v2 is a clinical candidate (FIGS. 9 and 10).

[3] = target: hDLL4: hNotch1 complexes (Homo sapiens, UniProt Q9NR61); assay: Yeast expressing nanobody stained with unlabeled hDLL4 + biotinylated hNotch1 (6-13), flow cytometry (inhibition of hNotch1 binding to hDLL4); conditions: FIG. 3
Experimental: (§2) 164. Next, we tested four cross-reactive nanobodies (A7, C4, C5, and B1) for their ability to inhibit binding of hNotch1 to hDLL4 (FIG. 3). Yeast expressing each nanobody were stained with either biotinylated hDLL4 (N-3) or unlabled hDLL4+biotinylated hNotch1 EGF domains 6-13 (hNotch1 (6-13)). The yeast were then washed, incubated with SA-647, and analyzed by flow cytometry.

[4] = test system: DLL4-mediated Notch activation (hNotch1); assay: Plate-bound ligand stimulation assay, Notch1 H2B-citrine reporter cells on recombinant human DLL4; assay type: cell-based; conditions: nanobody-Fc fusions, plates coated with human DLL4 (C2, DSL, EGF1-5), FIG. 6
Source text: 167. To determine if the C4 and C5 nanobodies inhibit DLL4-mediated Notch activation. Notch1 reporter H2B-citrine reporter cells were transferred to 96-well plates coated with recombinant human DLL4 protein containing the C2, DSL, and EGF1-5 domains in the presence or absence of nanobody-Fc fusions.

[5] = target: T2, DLL4 (Homo sapiens, UniProt Q9NR61); assay: SPR monomer affinity; assay type: binding; conditions: preliminary, FIG. 8
Source text: as §1
Target sequence in this assay (Q9NR61 27-685, species assumed): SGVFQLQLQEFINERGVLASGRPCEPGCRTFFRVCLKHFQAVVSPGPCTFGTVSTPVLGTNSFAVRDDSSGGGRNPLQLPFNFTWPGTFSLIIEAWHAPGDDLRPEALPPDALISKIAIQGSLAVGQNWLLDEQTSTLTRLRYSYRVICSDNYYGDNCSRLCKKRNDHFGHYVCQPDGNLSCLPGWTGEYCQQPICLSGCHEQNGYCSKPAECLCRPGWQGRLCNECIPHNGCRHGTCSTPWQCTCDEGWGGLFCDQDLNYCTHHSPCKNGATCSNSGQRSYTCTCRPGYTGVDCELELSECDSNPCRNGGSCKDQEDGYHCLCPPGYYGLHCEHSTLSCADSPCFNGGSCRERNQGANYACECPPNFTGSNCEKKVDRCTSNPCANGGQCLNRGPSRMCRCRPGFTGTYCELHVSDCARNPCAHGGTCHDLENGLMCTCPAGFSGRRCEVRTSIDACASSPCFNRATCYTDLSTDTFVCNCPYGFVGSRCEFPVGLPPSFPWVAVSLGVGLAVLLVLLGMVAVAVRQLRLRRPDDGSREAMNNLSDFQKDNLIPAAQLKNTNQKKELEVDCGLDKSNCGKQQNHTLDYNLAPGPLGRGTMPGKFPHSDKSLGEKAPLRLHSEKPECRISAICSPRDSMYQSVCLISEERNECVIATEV

[6] = target: T2, DLL4; assay: Yeast expressing nanobody stained with biotinylated hDLL4 (N-3) alone, flow cytometry; assay type: binding; set-up: stained with biotinylated human DLL4 (N-EGF3); conditions: yeast display, FIG. 3
Experimental: as §2
Target sequence in this assay (Q9NR61 27-322 limits assumed): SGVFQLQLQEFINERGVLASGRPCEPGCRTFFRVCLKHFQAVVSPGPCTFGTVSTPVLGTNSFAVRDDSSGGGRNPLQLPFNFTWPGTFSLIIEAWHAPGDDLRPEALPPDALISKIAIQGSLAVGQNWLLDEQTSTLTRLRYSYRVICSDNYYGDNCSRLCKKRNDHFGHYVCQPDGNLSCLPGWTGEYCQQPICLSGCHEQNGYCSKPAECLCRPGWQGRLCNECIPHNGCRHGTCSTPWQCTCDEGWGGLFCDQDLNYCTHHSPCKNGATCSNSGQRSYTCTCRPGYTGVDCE

[7] = target: T2, DLL4; assay: Cross-reactivity: yeast expressing each nanobody stained with biotinylated human DLL4 (N-EGF3), flow cytometry; assay type: binding; set-up: stained with biotinylated human DLL4 (N-EGF3); biotin (protein is biotinylated); conditions: yeast display, SA-647, FIG. 2
Experimental: 163. The eight anti-DLL4 nanobody clones were then tested for cross-reactivity between human and mouse DLL4. Yeast cells expressing each nanobody were stained with biotinylated human DLL4 (N-EGF3), washed, stained with SA-647, and then analyzed by flow cytometry.
Target sequence in this assay (Q9NR61 27-322 limits assumed): as above

T1 sequence (Q9JI71 27-323 limits assumed): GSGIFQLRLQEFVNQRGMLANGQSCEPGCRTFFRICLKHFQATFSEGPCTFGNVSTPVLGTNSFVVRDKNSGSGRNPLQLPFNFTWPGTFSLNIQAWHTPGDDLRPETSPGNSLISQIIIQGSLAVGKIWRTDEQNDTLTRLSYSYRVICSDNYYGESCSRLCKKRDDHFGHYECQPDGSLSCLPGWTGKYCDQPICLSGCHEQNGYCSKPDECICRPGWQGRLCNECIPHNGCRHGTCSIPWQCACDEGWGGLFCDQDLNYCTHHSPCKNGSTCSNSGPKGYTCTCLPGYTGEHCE
Sequence of hDLL4: hNotch1 complexes (Q9NR61 27-322 limits assumed, one chain of several): as the sequence (Q9NR61 27-322 limits assumed) above

Molecule	binding to mouse DLL4 [1]	cross-reactivity with human DLL4 [7]	other results
clone C2: anti-DLL4 nanobody isolated from the yeast library, SEQ ID NO: 28 (protein) VHH: QVQLQESGGGLVQAGGSLRLSCAASGSISVVYGMGWYRQAPGKEREFVAGISYGGSTYYADSVKGRFTISRDNAKNTVYLQMNSLKPEDTAVYYCAVDASYWDTLVYWGQGTQVTVSSGSYPYDVPDYAQTSSPSTEAS	bound mouse DLL4	–	–
Nb.d4C4v2: affinity-matured variant of the C4 nanobody, SEQ ID NO: 39 (SEQ ID NO: 41 with flanking sequence) (protein) VHH: QVQLQESGGGLVQAGGSLRLSCAASGSISGDVEMGWYRQAPGKEREFVAGINDGGNIYYADNVEGRFTISRDNAKNTVYLQMNSLKPEDTAVYYCAVSTTYPSYNESQYADWIAYWGQGAQVTVSS	–	–	IC50 ([2]; CHO-hNotch1 reporter cell line and cells expressing DLL4, similar to DAPT, FIG. 10): low-nanomolar; IC50 ([2]; CHO-hNotch1 reporter cell line, without cells expressing DLL4, similar to DAPT, FIG. 9): low-nanomolar
clone C5: anti-DLL4 nanobody isolated from the yeast library, SEQ ID NO: 20 (protein) VHH: QVQLQESGGGLVQAGGSLRLSCAASGNISTGTAMGWYRQAPGKEREFVAGIAYGATTYYADSVKGRFTISRDNAKNTVYLQMNSLKPEDTAVYYCAVEVSQSTPGGRYSVAYLIYWGQGTQVTVSSGSYPYDVPDYAQTSSPSTEAS	bound mouse DLL4	cross reacted with human DLL4	binding to hDLL4: hNotch1 complexes [3]: not to hDLL4: hNotch1 complexes; reduction in reporter activity (hNotch1 activation) [4]: dose-dependent reduction in reporter activity; binding to hDLL4 alone [6]: bound robustly
clone A8: anti-DLL4 nanobody isolated from the yeast library, SEQ ID NO: 4 (protein) VHH: QVQLQESGGGLVQAGGSLRLSCAASGTIFEERVMGWYRQAPGKEREFVAGIASGAITYYADSVKGRFTISRDNAKNTVYLQMNSLKPEDTAVYYCAAQGYSFKTKPDYSAYVLVYWGQGTQVTVSSGSYPYDVPDYAQTSSPSTEAS	bound mouse DLL4	–	–

The next lines start with results.

binding to mouse DLL4 [1]	cross-reactivity with human DLL4 [7]	Molecule	other results
–	cross reacted with human DLL4	clone C4: anti-DLL4 nanobody isolated from the yeast library, SEQ ID NO: 32; nanobody d4C4 SEQ ID NO: 36 (protein) VHH: QVQLQESGGGLVQAGGSLRLSCAASGSISGDVEMGWYRQAPGKEREFVAGINDGGNTYYADSVKGRFTISRDNAKNTVYLQMNSLKPEDTAVYYCAVSTTYPSYNESQYADWLAYWGQGTQVTVSSGSYPYDVPDYAQTSSPSTEAS	binding to hDLL4: hNotch1 complexes [3]: not to hDLL4: hNotch1 complexes; reduction in reporter activity (hNotch1 activation) [4]: dose-dependent reduction in reporter activity; monomer affinity [5]: low nanomolar to picomolar range; binding to hDLL4 alone [6]: bound robustly
bound mouse DLL4	cross reacted with human DLL4	clone B1: anti-DLL4 nanobody isolated from the yeast library, SEQ ID NO: 12 (protein) VHH: QVQLQESGGGLVQAGGSLRLSCAASGTIFYSSDMGWYRQAPGKEREFVAGINRGSTTYYADSVKGRFTISRDNAKNTVYLQMNSLKPEDTAVYYCAVVSDVLTRLFYWGQGTQVTVSSGSYPYDVPDYAQTSSPSTEAS	–
bound mouse DLL4	–	clone A9: anti-DLL4 nanobody isolated from the yeast library, SEQ ID NO: 8 (protein) VHH: QVQLQESGGGLVQAGGSLRLSCAASGTISQDSGMGWYRQAPGKEREFVAGITAGSITYYADSVKGRFTISRDNAKNTVYLQMNSLKPEDTAVYYCAASYVSVQAHTYWGQGTQVTVSSGSYPYDVPDYAQTSSPSTEAS	–
bound mouse DLL4	–	clone B4: anti-DLL4 nanobody isolated from the yeast library, SEQ ID NO: 16 (protein) VHH: QVQLQESGGGLVQAGGSLRLSCAASGNISVWIPMGWYRQAPGKEREFVASIGEGSTTYYADSVKGRFTISRDNAKNTVYLQMNSLKPEDTAVYYCAVPYYGHSDYDYWGQGTQVTVSSGSYPYDVPDYAQTSSPSTEAS	–
bound mouse DLL4	cross reacted with human DLL4	clone A7: anti-DLL4 nanobody isolated from the yeast library, SEQ ID NO: 24 (protein) VHH: QVQLQESGGGLVQAGGSLRLSCAASGNIFYTYSMGWYRQAPGKEREFVAAISAGTITYYADSVKGRFTISRDNAKNTVYLQMNSLKPEDTAVYYCAVFAPRDVIHYYWGQGTQVTVSSGSYPYDVPDYAQTSSPSTEAS	–
